The target of this test is Her (trivalent GalNAc glycan-conjugated). The experiment in a line: SPR. Background: Surface plasmon resonance follows binding to a sensor surface in real time, without labels.

One may read the koff as the rate constant with which the complex falls apart. A high value points to fast dissociation.

B1: ASGPR subunit H1 (receptor)
chain: QNSQLQEELRGLRETFSNFTASTEAQVKGLSTQGGNVGRKMKSLESQLEKQQKDLSEDHSSLLLHVKQFVSDLRSLSCQMAALQGNGSERTCCPVNWVEHERSCYWFSRSGKAWADADNYCRLEDAHLVVVTSWEEQKFVQHHIGPVNTWMGLHDQNGPWKWVDGTDYETGFKNWRPEQPDDWYGHGLGGGEDCAHFTDDGRWNDDVCQRPYRWVCETELDKASQEPPLL
Turning to B1, the off-rate constant (koff) came to 1.83e-08 s⁻¹.

These data come from patent publication US20160060354A1 (published 2016).
